Results taken from patent US20260242478A1 (published 2026).
Where no end group is shown, it is not given here.

Key:
[1] = molecular target: T1, anti-CD28 scFv (VH - linker 1 - VL) (biotinylated (site not given)); test: phage ELISA; biotinylated anti-CD28 scFv on neutravidin plate, clonal phage supernatant, anti-M13 HRP
T1 construct: Biotinylated scFv captured on neutravidin coated plates in the panning ELISA

[2] = molecular target: T1, anti-CD28 scFv (VH - linker 1 - VL); test: phage ELISA as above; wells pre-incubated with soluble CD28 as competitor;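 note: crude clonal phage supernatants tested, with bound phage detected by HRP-conjugated anti-M13 antibody, and reference wells given blocking buffer without CD28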
Method: Clonal phage were harvested as crude supernatants and screened via standard enzyme linked immunosorbent assays (ELISAs). […] Prior to the addition of clonal phage, wells were incubated with blocking buffer and CD28 soluble protein or blocking buffer alone. Without washing or aspirating, clonal phage supernatants were then added to the wells and incubated for a short time. Wells were then washed followed by detection of bound phage using a horse radish peroxidase conjugated anti-M13 antibody.

[3] = molecular target: T2, Anti-CD28 Fab (SEQ ID NOs: 696, 697); test: phage binding ELISA, biotinylated Fab on neutravidin plate, anti-M13 HRP detection;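 note: crude clonal phage supernatants added to Fab-coated wells pretreated with CD28 antigen or with blocking buffer only, bound phage measured after washing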
T2 construct: In the phage ELISA the Fab was biotinylated and captured on neutravidin coated plates
T2 sequence (VH, as listed by the source, chain 1 of 2): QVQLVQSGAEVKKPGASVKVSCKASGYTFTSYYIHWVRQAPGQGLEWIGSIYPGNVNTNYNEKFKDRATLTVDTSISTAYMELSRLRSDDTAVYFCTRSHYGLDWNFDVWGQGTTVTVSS
T2 sequence (VL, as listed by the source, chain 2 of 2): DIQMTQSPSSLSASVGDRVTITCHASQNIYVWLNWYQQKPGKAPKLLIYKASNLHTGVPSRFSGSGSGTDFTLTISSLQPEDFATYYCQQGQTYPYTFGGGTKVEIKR
Method: (§1) After panning, phage infected bacteria were plated out and colonies picked into 96 well blocks. Clonal phage was then amplified and separated from bacterial cells via centrifugation.
(§2) Clonal phage were harvested as crude supematants and screened via standard ELISAs. […] Prior to the addition of clonal phage, wells were incubated with blocking buffer and CD28 antigen or blocking buffer alone. Without washing or aspirating, clonal phage supematants were then added to the wells and incubated for a short time. Wells were then washed followed by detection of bound phage using a horse radish conjugated anti-M13 antibody. Clonal phage of interest were then sent for sequence analysis.

[4] = molecular target: T2, Anti-CD28 Fab (SEQ ID NOs: 696, 697); test: phage binding ELISA on plate-captured Fab, competitor CD28 antigen
Method: as §1, §2

[5] = molecular target: anti-CD28 Fab; test: BLI (Octet): biotinylated peptide on streptavidin sensor, anti-CD28 Fab titrated in solution, 1:1 model
Sequence of anti-CD28 Fab (VH, as listed by the source, chain 1 of 2): as the sequence (VH, as listed by the source, chain 1 of 2) above
Sequence of anti-CD28 Fab (VL, as listed by the source, chain 2 of 2): as the sequence (VL, as listed by the source, chain 2 of 2) above

T1 sequence (scFv, as listed by the source): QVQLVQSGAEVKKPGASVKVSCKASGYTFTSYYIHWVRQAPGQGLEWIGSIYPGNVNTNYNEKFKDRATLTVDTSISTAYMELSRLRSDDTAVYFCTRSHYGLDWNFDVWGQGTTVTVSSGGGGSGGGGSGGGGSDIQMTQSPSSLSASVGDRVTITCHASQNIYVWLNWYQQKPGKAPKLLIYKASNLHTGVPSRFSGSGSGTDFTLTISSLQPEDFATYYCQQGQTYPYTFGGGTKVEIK

Binder	CD28 scFv signal [1]	CD28 scFv signal in presence of CD28 [2]	Anti-CD28 Fab (SEQ ID NOs: 696, 697) signal [3]	Anti-CD28 Fab signal in the presence of CD28 [4]	further results
MDWCPRDLWSLCFY (cysteine pairing not given here; also: displayed on phage as fusion to pIII, linker not given here) [Phage-94]	2.57	0.246			
WECLKYTEANACTY (Clonal phage supernatant; not shown: bacteriophage pIII to which the peptide is fused for display) [Phage-455]			1.55	0.07	
YCAGHSPINIGKCL (cysteine pairing not given here; also: displayed on phage, fused to pIII, Clonal phage supernatant; not shown: bacteriophage pIII to which the peptide is fused for display) [Phage-463]			1.49	0.06	
MDWCPRFLWSECFN (cysteine pairing not given here; also: displayed on phage as fusion to pIII, linker not given here, also called position columns give F at position 7)) [Phage-95]	2.57	0.227			
PDCQTILFKPWCVR (cysteine pairing not given here; also: displayed on phage, fused to pIII, Clonal phage supernatant; not shown: bacteriophage pIII to which the peptide is fused for display) [Phage-457]			2.09	0.06	
MDWCPKYLWDVCFN (cysteine pairing not given here; also: displayed on phage as fusion to pIII, linker not given here) [Phage-98]	2.57	0.422			
MDWCPRYLWNMCFH (cysteine pairing not given here; also: displayed on phage as fusion to pIII, linker not given here) [Phage-99]	2.56	0.404			
MDWCPRTLWAYCFN (cysteine pairing not given here; also: displayed on phage as fusion to pIII, linker not given here) [Phage-96]	2.57	0.584			
YCAGHAWQYINKCL (cysteine pairing not given here; also: displayed on phage, fused to pIII, Clonal phage supernatant; not shown: bacteriophage pIII to which the peptide is fused for display) [Phage-466]			0.64	0.07	
GCQYPWAFDAMSCP (cysteine pairing not given here; also: displayed on phage, fused to pIII, Clonal phage supernatant; not shown: bacteriophage pIII to which the peptide is fused for display) [Phage-459]			2.38	0.07	
WCWDYREWVPMTCP (cysteine pairing not given here; also: displayed on phage, fused to pIII, Clonal phage supernatant; not shown: bacteriophage pIII to which the peptide is fused for display) [Phage-461]			2.3	0.08	
WCWYYREWVPMTCP (cysteine pairing not given here; also: displayed on phage, fused to pIII, Clonal phage supernatant; not shown: bacteriophage pIII to which the peptide is fused for display) [Phage-467]			1.85	0.07	
YCEGHLPEYREKCL (not fully specified; cysteine pairing not given here; also: biotinylated, site not given here) [Peptide-126]					t1/2 [5]: 36 s
FMCLPQNPHPLCFK (Clonal phage supernatant; not shown: bacteriophage pIII to which the peptide is fused for display) [Phage-456]			0.84	0.06	
YCEGHAPEYIAKCL (cysteine pairing not given here; also: biotinylated, site not given here) [Peptide-121]					Kd [5]: 831 nM; koff [5]: 0.028 s⁻¹; kon [5]: 33700 M⁻¹ s⁻¹; t1/2 [5]: 24 s
YWYCSPSIVRCVLV (cysteine pairing not given here; also: displayed on phage, fused to pIII, Clonal phage supernatant; not shown: bacteriophage pIII to which the peptide is fused for display) [Phage-468]			1.51	0.09	
ACDTYFAGMINECF (cysteine pairing not given here; also: displayed on phage, fused to pIII, Clonal phage supernatant; not shown: bacteriophage pIII to which the peptide is fused for display) [Phage-458]			0.92	0.1	
YWSCFQIPFTCFYF (Clonal phage supernatant; not shown: bacteriophage pIII to which the peptide is fused for display) [Phage-454]			1.44	0.27	
ECHWSMWAVGHACF (cysteine pairing not given here; also: displayed on phage, fused to pIII, Clonal phage supernatant; not shown: bacteriophage pIII to which the peptide is fused for display) [Phage-462]			1.77	0.07	
WCWDYKLWVPMTCP (cysteine pairing not given here; also: displayed on phage, fused to pIII, Clonal phage supernatant; not shown: bacteriophage pIII to which the peptide is fused for display) [Phage-464]			2.51	0.11	
SCAAGASYAWPYCL (Clonal phage supernatant; not shown: bacteriophage pIII to which the peptide is fused for display) [Phage-471]			1.49	0.05	
MDWCPRYLWHECFN (cysteine pairing not given here; also: phage-displayed pIII fusion, pIII and linker not given here) [Phage-115]	2.49	0.421			
MDWCPRYLWDECFN (cysteine pairing not given here; also: phage-displayed pIII fusion, pIII and linker not given here) [Phage-110]	2.53	0.283			
MDWCPRYLWTECFN (cysteine pairing not given here; also: phage-displayed pIII fusion, pIII and linker not given here) [Phage-100]	2.56	0.549			
DCWWMFESYPGRCI (cysteine pairing not given here; also: displayed on phage, fused to pIII, Clonal phage supernatant; not shown: bacteriophage pIII to which the peptide is fused for display) [Phage-465]			1.65	0.07	
YCEGHLPEYLAKCL (not fully specified; cysteine pairing not given here; also: biotinylated, site not given here) [Peptide-127]					Kd [5]: 44.7 nM; t1/2 [5]: 60 s
WICDKSGSIMLCRA (Clonal phage supernatant; not shown: bacteriophage pIII to which the peptide is fused for display) [Phage-470]			0.91	0.06	
MDWCPRYLWTVCFS (cysteine pairing not given here; also: displayed on phage as fusion to pIII, linker not given here) [Phage-93]	2.58	0.372			
MDWCPKDLWDYCFA (cysteine pairing not given here; also: displayed on phage as fusion to pIII, linker not given here) [Phage-97]	2.57	0.165			
WCWDYKLWVPTQCP (cysteine pairing not given here; also: displayed on phage, fused to pIII, Clonal phage supernatant; not shown: bacteriophage pIII to which the peptide is fused for display) [Phage-460]			2.27	0.14	
